# Source: patent publication US9102755B2, “Highly stabilized epidermal growth factor mutants” (PnP Biopharm Co., Ltd., priority 2013, dated 2015)
# Columns and labels:
# [1] = Structure and thermal stability (Tm) by circular dichroism; format: physicochemical; conditions: 0.1 mg/ml; for Structure change: circular dichroism 190-250 nm, 20 mM sodium phosphate pH 5.5, 20° C., versus wild-type EGF; for Tm (melting temperature): circular dichroism, 20° C. to 95° C. at 1° C./min
# Description: The structure and thermal stability of the purified EGF mutant were measured through a circular dichroism analysis using a J-810 spectrometer (JASCO). As the wild-type EGF, the purified EGF prepared in Example 2 was used. In order to analyze the structure, each EGF was dissolved in 20 mM sodium phosphate (pH 5.5) to be uniformly a final concentration of 0.1 mg/ml. And then, the dissolved EGF solution was added to 0.1 cm cell, and then its structure was analyzed under the conditions of, as 190 nm to 250 nm region, band width 1 nm, response 0.25 sec, data pitch 0.1 nm, scanning speed 20 nm/min, cell length 1 cm, accumulation 8 times, and a temperature of 20° C.
# In order to analyze the thermal stability, a wavelength of 200 nm was determined through a comparison analysis of far-UV at the Tm (melting temperature) of 20° C. and 95° C., and progressed in a concentration of 0.1 mg/ml in 0.1 cm cell. As the conditions, it was measured at 20° C. to 95° C. under condition of 1° C./min.
# The structure is changed at the band of about 195 nm when generating a folding-unfolding phenomenon. Using it, the melting temperature (Tm) was measured in the range of 20 to 95° C., and thus the accurate Tm value was analyzed. As a result, as for the structure change, most mutants had the similar structure as the wild-type EGF, and thus there were few changes. […] It can be confirmed that the thermal stabilities of M2 and M3 were improved by 87° C.
# [2] = Solubility of wild-type and mutant EGFs in 20 mM sodium phosphate (pH 5.5); format: physicochemical
# Description: 1 mg of the respective wild-type and mutant EGFs prepared was dissolved in 1 ml of 20 mM sodium phosphate (pH 5.5 that is the similarly pH environment as cosmetics). In order to remove undissolved EGF, the mixture thus obtained was centrifuged and then supernatant was obtained. The concentration of the supernatant thus obtained was measured by using a Bradford method and UV method.
Substance,Structure change [1],Tm (melting temperature) [1],"Solubility ([2]; 1 mg in 1 ml 20 mM sodium phosphate pH 5.5, supernatant, Bradford and UV method) [µg/mL]","Solubility (Comparison with wild-type %) ([2]; 20 mM sodium phosphate pH 5.5, relative to wild-type EGF) [%]"
"A-4-1: EGF mutant, fourth serine substituted with glutamic acid (SEQ ID NO: 62) (NSDEECPLSHDGYCLHDGVCMYIEALDKYACNCVVGYIGERCQYRDLKWWELR; not fully specified; Epidermal growth factor; UniProt P01133 971-1023, looked up, variant S4E)",No change,(76° C.),,
"A-8-2: EGF mutant, eighth leucine substituted with serine (SEQ ID NO: 63) (NSDSECPSSHDGYCLHDGVCMYIEALDKYACNCVVGYIGERCQYRDLKWWELR; not fully specified; Epidermal growth factor; UniProt P01133 971-1023, looked up, variant L8S)",No change,(76° C.),699.1,137
"A-8-3: EGF mutant, eighth leucine substituted with proline (SEQ ID NO: 64) (NSDSECPPSHDGYCLHDGVCMYIEALDKYACNCVVGYIGERCQYRDLKWWELR; not fully specified; Epidermal growth factor; UniProt P01133 971-1023, looked up, variant L8P)",No change,(76° C.),,
"B-19-2: EGF mutant, 19th valine substituted with serine (SEQ ID NO: 67) (NSDSECPLSHDGYCLHDGSCMYIEALDKYACNCVVGYIGERCQYRDLKWWELR; not fully specified; Epidermal growth factor; UniProt P01133 971-1023, looked up, variant V19S)",No change,(76° C.),,
"B-19-4: EGF mutant, 19th valine substituted with aspartic acid (SEQ ID NO: 69) (NSDSECPLSHDGYCLHDGDCMYIEALDKYACNCVVGYIGERCQYRDLKWWELR; not fully specified; Epidermal growth factor; UniProt P01133 971-1023, looked up, variant V19D)",No change,(76° C.),,
"B-19-5: EGF mutant, 19th valine substituted with lysine (SEQ ID NO: 70) (NSDSECPLSHDGYCLHDGKCMYIEALDKYACNCVVGYIGERCQYRDLKWWELR; not fully specified; Epidermal growth factor; UniProt P01133 971-1023, looked up, variant V19K)",No change,(76° C.),,
"C-26-2: EGF mutant, 26th leucine substituted with serine (SEQ ID NO: 73) (NSDSECPLSHDGYCLHDGVCMYIEASDKYACNCVVGYIGERCQYRDLKWWELR; not fully specified; Epidermal growth factor; UniProt P01133 971-1023, looked up, variant L26S)",No change,(76° C.),,
"D-34-1: EGF mutant, 34th valine substituted with serine (SEQ ID NO: 75) (NSDSECPLSHDGYCLHDGVCMYIEALDKYACNCSVGYIGERCQYRDLKWWELR; not fully specified; Epidermal growth factor; UniProt P01133 971-1023, looked up, variant V34S)",No change,(76° C.),,
"D-34-3: EGF mutant, 34th valine substituted with aspartic acid (SEQ ID NO: 77) (NSDSECPLSHDGYCLHDGVCMYIEALDKYACNCDVGYIGERCQYRDLKWWELR; not fully specified; Epidermal growth factor; UniProt P01133 971-1023, looked up, variant V34D)",No change,(76° C.),,
"D-34-4: EGF mutant, 34th valine substituted with lysine (SEQ ID NO: 78) (CNCKVGYIGE)",No change,(76° C.),,
"D-35-5: EGF mutant, 35th valine substituted with serine (SEQ ID NO: 79) (CNCVSGYIGE)",No change,(76° C.),,
"D-35-7: EGF mutant, 35th valine substituted with aspartic acid (SEQ ID NO: 81) (CNCVDGYIGE)",No change,(76° C.),,
"D-35-8: EGF mutant, 35th valine substituted with lysine (SEQ ID NO: 82) (CNCVKGYIGE)",No change,(76° C.),,
"D-38-9: EGF mutant, 38th isoleucine substituted with serine (SEQ ID NO: 83) (CNCVVGYSGE)",No change,(76° C.),,
"D-38-11: EGF mutant, 38th isoleucine substituted with glutamic acid (SEQ ID NO: 85) (CNCVVGYEGE)",No change,(76° C.),,
"D-38-12: EGF mutant, 38th isoleucine substituted with aspartic acid (SEQ ID NO: 86) (CNCVVGYDGE)",No change,(76° C.),,
"E-48-3: EGF mutant, 48th lysine substituted with arginine (SEQ ID NO: 90) (RCQYRDLRWWELR)",No change,(76° C.),,
"E-50-4: EGF mutant, 50th tryptophan substituted with serine (SEQ ID NO: 91) (RCQYRDLKWSELR)",No change,(76° C.),,
"E-50-5: EGF mutant, 50th tryptophan substituted with histidine (SEQ ID NO: 92) (RCQYRDLKWHELR)",No change,(76° C.),,
"E-50-6: EGF mutant, 50th tryptophan substituted with glutamic acid (SEQ ID NO: 93) (RCQYRDLKWEELR)",No change,(76° C.),,
